Reference: US20060257938A1, “Method of screening for drugs that block ligand binding to a lipid binding protein” (priority 2005, published 2006)
Values joined by “and” are separate entries in the source; they are usually repeats but may differ in a detail not shown here. Identical values can stand only once.

Assays:
Format in all cases: binding
[1] = Probe fluorescence ratio response to oleic acid relative to ADIFAB2; details: response relative to ADIFAB2
Outline: (§1)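 Each fatty acid's response was expressed relative to ADIFAB2, the rI-FABP-L72A probe, as ΔR/ΔRreference. ΔR is the change in the background-corrected two-wavelength intensity ratio R=Fλ1/Fλ2 from its analyte-free baseline R0. Emission was read near about 420-480 nm for unbound and about 495-580 nm for FFA-bound probe.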

[2] = Probe fluorescence ratio response to linolenic acid relative to ADIFAB2; details: response relative to ADIFAB2
Outline: as §1

[3] = Probe fluorescence ratio response to palmitic acid relative to ADIFAB2; details: response relative to ADIFAB2
Outline: as §1

[4] = Probe fluorescence ratio response to arachidonic acid relative to ADIFAB2; details: arachidonic acid; response relative to ADIFAB2
Outline: as §1

[5] = Probe fluorescence ratio response to linoleic acid relative to ADIFAB2; details: response relative to ADIFAB2
Outline: as §1

B1: 14V, 72A (protein, listed as Rattus norvegicus)
chain: AFDGTWKVDRNENVEKFMEKMGINVVKRKLGAHDNLKLTITQEGNKFTVKESSNFRNIDVVFELGVDFAYSAADGTELTGTWTMEGNKLVGKFKRVDNGKELIAVREISGNELIQTYTYEGVEAKRIFKKE
modifications: PEPTIDE (1)...(131) wild-type rat intestinal fatty acid binding protein
[1]
  DR/DR OA: 0.51 and 0.513
[2]
  DR/DR LNA: 0.87 and 0.868
[3]
  DR/DR PA: 0.43
[4]
  DR/DR AA: 0.76 and 0.756
[5]
  DR/DR LA: 0.84 and 0.836

B2: 17M, 72A (protein, listed as Rattus norvegicus)
chain: AFDGTWKVDRNENYEKMMEKMGINVVKRKLGAHDNLKLTITQEGNKFTVKESSNFRNIDVVFELGVDFAYSAADGTELTGTWTMEGNKLVGKFKRVDNGKELIAVREISGNELIQTYTYEGVEAKRIFKKE
modifications: PEPTIDE (1)...(131) wild-type rat intestinal fatty acid binding protein
[1]
  DR/DR OA: 0.49
[2]
  DR/DR LNA: 0.53 and 0.532
[3]
  DR/DR PA: 0.28 and 0.281
[4]
  DR/DR AA: 0.59
[5]
  DR/DR LA: 0.49 and 0.489

B3: 17K 72A (protein, listed as Rattus norvegicus)
chain: AFDGTWKVDRNENYEKKMEKMGINVVKRKLGAHDNLKLTITQEGNKFTVKESSNFRNIDVVFELGVDFAYSAADGTELTGTWTMEGNKLVGKFKRVDNGKELIAVREISGNELIQTYTYEGVEAKRIFKKE
modifications: PEPTIDE (1)...(131) wild-type rat intestinal fatty acid binding protein
[1]
  DR/DR OA: 0.31
[2]
  DR/DR LNA: 0.29
[3]
  DR/DR PA: 0.13
[4]
  DR/DR AA: 0.28
[5]
  DR/DR LA: 0.33

B4: 17A, 72A (protein, listed as Rattus norvegicus)
chain: AFDGTWKVDRNENYEKAMEKMGINVVKRKLGAHDNLKLTITQEGNKFTVKESSNFRNIDVVFELGVDFAYSAADGTELTGTWTMEGNKLVGKFKRVDNGKELIAVREISGNELIQTYTYEGVEAKRIFKKE
modifications: PEPTIDE (1)...(131) wild-type rat intestinal fatty acid binding protein
[1]
  DR/DR OA: 0.38
[2]
  DR/DR LNA: 0.97
[3]
  DR/DR PA: 0.24
[4]
  DR/DR AA: 0.53
[5]
  DR/DR LA: 0.56

B5: 17C, 72A (protein, listed as Rattus norvegicus)
chain: AFDGTWKVDRNENYEKCMEKMGINVVKRKLGAHDNLKLTITQEGNKFTVKESSNFRNIDVVFELGVDFAYSAADGTELTGTWTMEGNKLVGKFKRVDNGKELIAVREISGNELIQTYTYEGVEAKRIFKKE
modifications: PEPTIDE (1)...(131) wild-type rat intestinal fatty acid binding protein
[1]
  DR/DR OA: 0.31
[2]
  DR/DR LNA: 0.26
[3]
  DR/DR PA: 0.10
[4]
  DR/DR AA: 0.15
[5]
  DR/DR LA: 0.25

B6: 17E, 72A (protein, listed as Rattus norvegicus)
chain: AFDGTWKVDRNENYEKEMEKMGINVVKRKLGAHDNLKLTITQEGNKFTVKESSNFRNIDVVFELGVDFAYSAADGTELTGTWTMEGNKLVGKFKRVDNGKELIAVREISGNELIQTYTYEGVEAKRIFKKE
modifications: PEPTIDE (1)...(131) wild-type rat intestinal fatty acid binding protein
[1]
  DR/DR OA: 0.84
[2]
  DR/DR LNA: 0.88
[3]
  DR/DR PA: 0.53
[4]
  DR/DR AA: 0.80
[5]
  DR/DR LA: 0.90

B7: 17Q, 72A (protein, listed as Rattus norvegicus)
chain: AFDGTWKVDRNENYEKQMEKMGINVVKRKLGAHDNLKLTITQEGNKFTVKESSNFRNIDVVFELGVDFAYSAADGTELTGTWTMEGNKLVGKFKRVDNGKELIAVREISGNELIQTYTYEGVEAKRIFKKE
modifications: PEPTIDE (1)...(131) wild-type rat intestinal fatty acid binding protein
[1]
  DR/DR OA: 0.55
[2]
  DR/DR LNA: 0.59
[3]
  DR/DR PA: 0.29
[4]
  DR/DR AA: 0.62
[5]
  DR/DR LA: 0.59

B8: 14W, 72A (protein, listed as Rattus norvegicus)
chain: AFDGTWKVDRNENWEKFMEKMGINVVKRKLGAHDNLKLTITQEGNKFTVKESSNFRNIDVVFELGVDFAYSAADGTELTGTWTMEGNKLVGKFKRVDNGKELIAVREISGNELIQTYTYEGVEAKRIFKKE
modifications: PEPTIDE (1)...(131) wild-type rat intestinal fatty acid binding protein
[1]
  DR/DR OA: 0.26
[2]
  DR/DR LNA: 0.31
[3]
  DR/DR PA: 0.23
[4]
  DR/DR AA: 0.30
[5]
  DR/DR LA: 0.33

B9: 17H, 72A (protein, listed as Rattus norvegicus)
chain: AFDGTWKVDRNENYEKHMEKMGINVVKRKLGAHDNLKLTITQEGNKFTVKESSNFRNIDVVFELGVDFAYSAADGTELTGTWTMEGNKLVGKFKRVDNGKELIAVREISGNELIQTYTYEGVEAKRIFKKE
modifications: PEPTIDE (1)...(131) wild-type rat intestinal fatty acid binding protein
[1]
  DR/DR OA: 0.40
[2]
  DR/DR LNA: 0.50
[3]
  DR/DR PA: 0.22
[4]
  DR/DR AA: 0.52
[5]
  DR/DR LA: 0.48

B10: 17G, 72A (protein, listed as Rattus norvegicus)
chain: AFDGTWKVDRNENYEKGMEKMGINVVKRKLGAHDNLKLTITQEGNKFTVKESSNFRNIDVVFELGVDFAYSAADGTELTGTWTMEGNKLVGKFKRVDNGKELIAVREISGNELIQTYTYEGVEAKRIFKKE
modifications: PEPTIDE (1)...(131) wild-type rat intestinal fatty acid binding protein
[1]
  DR/DR OA: 0.52
[2]
  DR/DR LNA: 0.62
[3]
  DR/DR PA: 0.28
[4]
  DR/DR AA: 0.48
[5]
  DR/DR LA: 0.58

B11: 17F, 72A (protein, listed as Rattus norvegicus)
chain: AFDGTWKVDRNENYEKFMEKMGINVVKRKLGAHDNLKLTITQEGNKFTVKESSNFRNIDVVFELGVDFAYSAADGTELTGTWTMEGNKLVGKFKRVDNGKELIAVREISGNELIQTYTYEGVEAKRIFKKE
modifications: PEPTIDE (1)...(131) wild-type rat intestinal fatty acid binding protein
[1]
  DR/DR OA: 1.42
[2]
  DR/DR LNA: 1.38
[3]
  DR/DR PA: 1.14
[4]
  DR/DR AA: 1.37
[5]
  DR/DR LA: 1.35

B12: 17L, 72A (protein, listed as Rattus norvegicus)
chain: AFDGTWKVDRNENYEKLMEKMGINVVKRKLGAHDNLKLTITQEGNKFTVKESSNFRNIDVVFELGVDFAYSAADGTELTGTWTMEGNKLVGKFKRVDNGKELIAVREISGNELIQTYTYEGVEAKRIFKKE
modifications: PEPTIDE (1)...(131) wild-type rat intestinal fatty acid binding protein
[1]
  DR/DR OA: 0.46 and 0.459
[2]
  DR/DR LNA: 0.45 and 0.447
[3]
  DR/DR PA: 0.28 and 0.279
[4]
  DR/DR AA: 0.52 and 0.525
[5]
  DR/DR LA: 0.42

B13: 17D, 72A (protein, listed as Rattus norvegicus)
chain: AFDGTWKVDRNENYEKDMEKMGINVVKRKLGAHDNLKLTITQEGNKFTVKESSNFRNIDVVFELGVDFAYSAADGTELTGTWTMEGNKLVGKFKRVDNGKELIAVREISGNELIQTYTYEGVEAKRIFKKE
modifications: PEPTIDE (1)...(131) wild-type rat intestinal fatty acid binding protein
[1]
  DR/DR OA: 0.26
[2]
  DR/DR LNA: 0.34
[3]
  DR/DR PA: 0.16
[4]
  DR/DR AA: 0.28
[5]
  DR/DR LA: 0.31

B14: 102L, 72A (protein, listed as Rattus norvegicus)
chain: AFDGTWKVDRNENYEKFMEKMGINVVKRKLGAHDNLKLTITQEGNKFTVKESSNFRNIDVVFELGVDFAYSAADGTELTGTWTMEGNKLVGKFKRVDNGKELIAVREISGNELIQTYTYEGVEAKRIFKKE
modifications: PEPTIDE (1)...(131) wild-type rat intestinal fatty acid binding protein
[1]
  DR/DR OA: 1.40 and 1.366
[2]
  DR/DR LNA: 1.41 and 1.284
[3]
  DR/DR PA: 0.97 and 1.012
[4]
  DR/DR AA: 1.25 and 1.103
[5]
  DR/DR LA: 1.40 and 1.267

B15: 17P, 72A (protein, listed as Rattus norvegicus)
chain: AFDGTWKVDRNENYEKPMEKMGINVVKRKLGAHDNLKLTITQEGNKFTVKESSNFRNIDVVFELGVDFAYSAADGTELTGTWTMEGNKLVGKFKRVDNGKELIAVREISGNELIQTYTYEGVEAKRIFKKE
modifications: PEPTIDE (1)...(131) wild-type rat intestinal fatty acid binding protein
[1]
  DR/DR OA: 0.55
[2]
  DR/DR LNA: 0.63
[3]
  DR/DR PA: 0.24
[4]
  DR/DR AA: 0.51
[5]
  DR/DR LA: 0.60

B16: 17N, 72A (protein, listed as Rattus norvegicus)
chain: AFDGTWKVDRNENYEKNMEKMGINVVKRKLGAHDNLKLTITQEGNKFTVKESSNFRNIDVVFELGVDFAYSAADGTELTGTWTMEGNKLVGKFKRVDNGKELIAVREISGNELIQTYTYEGVEAKRIFKKE
modifications: PEPTIDE (1)...(131) wild-type rat intestinal fatty acid binding protein
[1]
  DR/DR OA: 0.49
[2]
  DR/DR LNA: 0.51
[3]
  DR/DR PA: 0.22
[4]
  DR/DR AA: 0.47
[5]
  DR/DR LA: 0.50

B17: 17I, 72A (protein, listed as Rattus norvegicus)
chain: AFDGTWKVDRNENYEKIMEKMGINVVKRKLGAHDNLKLTITQEGNKFTVKESSNFRNIDVVFELGVDFAYSAADGTELTGTWTMEGNKLVGKFKRVDNGKELIAVREISGNELIQTYTYEGVEAKRIFKKE
modifications: PEPTIDE (1)...(131) wild-type rat intestinal fatty acid binding protein
[1]
  DR/DR OA: 0.62 and 0.624
[2]
  DR/DR LNA: 0.54 and 0.541
[3]
  DR/DR PA: 0.28 and 0.283
[4]
  DR/DR AA: 0.64
[5]
  DR/DR LA: 0.50 and 0.499
